According to publication PMC6561242:

Target: α-synuclein 1–140 tagged with the C-terminal Venus fragment (UniProt P37840)
Experiment: split reporter

Sequence of VAMP2 tagged with the N-terminal Venus fragment (natural protein) (P63027 2-116): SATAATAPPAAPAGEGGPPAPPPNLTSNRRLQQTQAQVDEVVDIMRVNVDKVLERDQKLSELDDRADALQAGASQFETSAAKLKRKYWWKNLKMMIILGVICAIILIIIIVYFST

Substance: VAMP2 tagged with the N-terminal Venus fragment (natural protein)
- Venus complementation fluorescence at boutons relative to α-syn 1–140: 1
- Venus complementation fluorescence relative to α-syn 1–140: 1
